T1: Boi2 SH3 (BOI2_YEAST), P39969
T1 chain: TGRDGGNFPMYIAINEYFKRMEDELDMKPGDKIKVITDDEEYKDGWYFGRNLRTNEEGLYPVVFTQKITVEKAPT

T2: Rvs167 SH3 (RV167_YEAST), P39743
T2 chain: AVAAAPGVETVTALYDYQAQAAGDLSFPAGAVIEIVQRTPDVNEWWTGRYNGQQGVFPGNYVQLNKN

T3: Yhr016c SH3 (YSC84_YEAST), P32793
T3 chain: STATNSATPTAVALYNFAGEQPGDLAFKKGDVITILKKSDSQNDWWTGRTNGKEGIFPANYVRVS

T4: Yfr024 SH3 (LSB3_YEAST), P43603
T4 chain: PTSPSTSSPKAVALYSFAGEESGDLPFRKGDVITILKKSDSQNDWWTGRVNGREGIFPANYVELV

T5: Boi1 SH3 (BOI1_YEAST), P38041
T5 chain: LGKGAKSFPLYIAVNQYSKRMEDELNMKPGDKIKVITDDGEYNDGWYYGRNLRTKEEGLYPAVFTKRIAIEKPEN

T6: Myo5 SH3 (MYO5_YEAST), Q04439
T6 chain: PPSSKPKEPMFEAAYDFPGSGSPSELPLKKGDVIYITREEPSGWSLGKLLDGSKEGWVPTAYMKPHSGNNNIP


Assays:
Test in all cases: SPOT array
[1] = molecular target: T1, Boi2 SH3 (BOI2_YEAST), P39969
[2] = molecular target: T2, Rvs167 SH3 (RV167_YEAST), P39743
[3] = molecular target: T3, Yhr016c SH3 (YSC84_YEAST), P32793
[4] = molecular target: Sho1 SH3 (SHO1_YEAST), P40073
Sho1 SH3 (SHO1_YEAST), P40073, sequence (P40073 295-366): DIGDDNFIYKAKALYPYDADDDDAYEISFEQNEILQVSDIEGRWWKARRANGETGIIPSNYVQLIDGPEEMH

[5] = molecular target: T4, Yfr024 SH3 (LSB3_YEAST), P43603
[6] = molecular target: T5, Boi1 SH3 (BOI1_YEAST), P38041
[7] = molecular target: T6, Myo5 SH3 (MYO5_YEAST), Q04439

| Binder | normalised SPOT signal, Boehringer light units (BLU); mean over the file's lines of this peptide [1] | normalised SPOT signal, Boehringer light units (BLU); mean over the file's lines of this peptide [2] | normalised SPOT signal, Boehringer light units (BLU); mean over the file's lines of this peptide [3] | normalised SPOT signal, Boehringer light units (BLU); mean over the file's lines of this peptide [4] | normalised SPOT signal, Boehringer light units (BLU); mean over the file's lines of this peptide [5] | normalised SPOT signal, Boehringer light units (BLU); mean over the file's lines of this peptide [6] | normalised SPOT signal, Boehringer light units (BLU); mean over the file's lines of this peptide [7] |
| --- | --- | --- | --- | --- | --- | --- | --- |
| SLIPKIEPAEPTYS [YNL224C 454-467] | 25.6 | 41.8 | 8.7 | 33.4 | 1 | 170 | 85.4 |
| SLISKRNPSYPYGI [YEL050C 18-31] | 53.2 | 45.7 | 10.1 | 159 | 79.2 | 274 | 483 |
| SLKNRDGPITPSTI [YPR128C 112-125] | 67.9 | 232 | 14.1 | 25.7 | 161 | 60.2 | 215 |
| SLLAKYQPSLPLVE [YDL179W 224-237] | 76.8 | 68.6 | 46.8 | 58.4 | 57.4 | 44.7 | 162 |
| SLTLKTLPRVPTDS [YDL197C 461-474] | 28.1 | 163 | 28.2 | 31400 | 188 | 75.5 | 212 |
| SMAMRPIPPLPTES [YNL152W 155-168] | 49 | 32500 | 46600 | 242 | 50600 | 37 | 1330 |
| SMDSKRKPSPPSQR [YPL141C 758-771] | 110 | 371 | 171 | 89.1 | 824 | 1110 | 510 |
